2 molecules from CN116262787A (BOAOXIN BIOTECHNOLOGY NANJING CO LTD, dated 2023) can be followed below.

In experiment [1] the target is T1, 小鼠LAG-3-his (in-house, mouse LAG-3 Uniprot #Q61790, Gly24-Leu442) (mouse, UniProt Q61790 24-442).
T1 construct: range 24-442; also called 鼠LAG-3蛋白; not shown: his tag
T1 sequence (looked up): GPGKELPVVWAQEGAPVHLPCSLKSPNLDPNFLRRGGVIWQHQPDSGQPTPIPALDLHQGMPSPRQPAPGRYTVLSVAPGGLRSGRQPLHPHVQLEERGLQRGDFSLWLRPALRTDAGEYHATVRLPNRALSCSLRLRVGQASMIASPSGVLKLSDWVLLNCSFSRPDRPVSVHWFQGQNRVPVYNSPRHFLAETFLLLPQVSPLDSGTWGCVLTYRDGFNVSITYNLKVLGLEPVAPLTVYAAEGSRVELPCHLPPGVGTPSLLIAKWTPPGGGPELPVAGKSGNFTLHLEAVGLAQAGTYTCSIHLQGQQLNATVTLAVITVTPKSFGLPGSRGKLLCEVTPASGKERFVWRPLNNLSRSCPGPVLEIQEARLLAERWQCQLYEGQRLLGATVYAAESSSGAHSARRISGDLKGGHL
Kind of experiment: indirect ELISA, coated mouse LAG-3-his. In general terms: ELISA stands for enzyme-linked immunosorbent assay.

Experiment [2] addresses T2, 生物素标记的人LAG-3蛋白 (LAG-3-Fc-bio, cat#LA3-H82Fb, Acro) (human, UniProt P18627 23-450, biotin label (site not stated)).
T2 construct: Bought protein (Acro LA3-H82Fb); also called 人LAG-3-Fc-bio; not shown: Fc part of the bought fusion
T2 sequence (looked up): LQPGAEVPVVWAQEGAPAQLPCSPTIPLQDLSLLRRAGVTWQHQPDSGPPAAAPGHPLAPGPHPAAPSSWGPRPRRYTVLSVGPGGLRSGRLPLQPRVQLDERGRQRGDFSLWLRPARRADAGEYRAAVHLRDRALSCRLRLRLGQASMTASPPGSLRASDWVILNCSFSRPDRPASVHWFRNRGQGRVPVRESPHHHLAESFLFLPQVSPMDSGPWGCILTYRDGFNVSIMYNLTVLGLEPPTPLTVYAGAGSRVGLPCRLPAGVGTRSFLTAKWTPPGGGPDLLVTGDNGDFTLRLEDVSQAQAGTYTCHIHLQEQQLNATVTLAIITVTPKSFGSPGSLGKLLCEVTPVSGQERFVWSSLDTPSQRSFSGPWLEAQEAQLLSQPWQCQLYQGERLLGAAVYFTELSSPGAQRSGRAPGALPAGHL
Kind of experiment: capture ELISA: antibody captured on GAM-Fab/GAH-Fab, LAG-3-Fc-bio in solution, SA-HRP.

The target in experiment [3] is T3, 人LAG-3 on the surface of a stable 293T cell line overexpressing it (human, UniProt P18627 23-525).
T3 construct: whole, on cells; also called 表面过表达人LAG-3的293T细胞
T3 sequence (looked up): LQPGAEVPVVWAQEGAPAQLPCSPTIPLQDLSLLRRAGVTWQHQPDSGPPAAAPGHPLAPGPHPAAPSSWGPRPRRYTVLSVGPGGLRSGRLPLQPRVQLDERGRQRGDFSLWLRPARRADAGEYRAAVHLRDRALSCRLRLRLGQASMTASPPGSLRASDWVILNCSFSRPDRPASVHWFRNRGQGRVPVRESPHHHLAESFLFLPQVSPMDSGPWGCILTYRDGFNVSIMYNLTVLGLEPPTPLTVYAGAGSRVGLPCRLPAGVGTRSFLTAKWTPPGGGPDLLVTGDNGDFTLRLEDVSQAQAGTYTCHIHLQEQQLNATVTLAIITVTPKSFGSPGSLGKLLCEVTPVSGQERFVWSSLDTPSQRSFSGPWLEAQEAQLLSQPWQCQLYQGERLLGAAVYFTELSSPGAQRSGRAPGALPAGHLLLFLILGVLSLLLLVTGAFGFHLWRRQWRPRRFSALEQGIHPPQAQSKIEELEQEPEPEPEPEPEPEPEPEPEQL
Description: flow cytometry on 293T cells overexpressing human LAG-3. In general terms: In flow cytometry, cells or beads pass a laser one at a time.

B1: Relatlimab (BRISTOL-MYERS SQUIBB COMPANY, BMS), reference antibody, prepared in-house (antibody, human IgG4 S228P, kappa, V domains shown)
VH: QVQLQQWGAGLLKPSETLSLTCAVYGGSFSDYYWNWIRQPPGKGLEWIGEINHRGSTNSNPSLKSRVTLSLDTSKNQFSLKLRSVTAADTAVYYCAFGYSDYEYNWFDPWGQGTLVTVSS
VL: EIVLTQSPATLSLSPGERATLSCRASQSISSYLAWYQQKPGQAPRLLIYDASNRATGIPARFSGSGSGTDFTLTISSLEPEDFAVYYCQQRSNWPLTFGQGTNLEIKR
notes: also called 参照抗体; 参照抗体Relatlimab
B1: the binding result in experiment [1] is reported as “no binding (tested: from 66.7nM, serial 5-fold dilution)”.

B2: 抗人LAG-3抗体G1A7 (mouse anti-human LAG-3 monoclonal antibody G1A7) (antibody, V domains shown)
VH: EVQLQQSGPVLVKPGASVKMSCKASGYTFTHYYMNWVKQSHGKSLEWIGVINPYNGDTSYKQNFKGKATLTVDKTSSTAYMDLNSLTSEDSAVYYCARDDGYYQWYFDVWGTGTTVTVSS
VL: DIQLTQSPSSLSASLGERVSLTCRASQDIGSRLIWLQQGPDGTIKRLIFATSSLDSGVPKRFSGSRSGSDYSLTISSLESEDFVDYYCLQCASSPPTFGGGTKLEIK
notes: Tested as the mouse monoclonal antibody purified from hybridoma culture; also called 本发明的抗体G1A7
Take B2: the binding result in experiment [2] was “binds”; in experiment [3] it was “binds”; in experiment [1] it was “no binding (tested: from 66.7nM, serial 5-fold dilution)”.
